Experimental data reported in patent US12460006B2, “Antibodies against integrin alpha 11 beta 1” (Momenta Pharmaceuticals, Inc., priority 2019, dated 2025).
“Also recorded” adds a separate entry of the source.

B1: 8-I14: mouse anti-α11β1 mAb; VH SEQ ID NO: 109, VL SEQ ID NO: 110 (antibody, V domains shown)
VH: EVQLQQSGPELVKPGASVKKSCKASGYTFTDYYMHWVKQKPGQGLEWIGKIYPGSGNTHYNEKFKGKATLTADKSSSTAYMQLSSLTSEDSAVYFCATNYYGYRAMNYWGQGSSVTVSS
VL: DIHLTQSPSSLSASLGERISLTCRASQDIYISLNWFQQKPDGTIKLLIYGTSSLDSGVPKRFSGSRSGSDYSLTISSLESEDFADYYCLQYASSPYTFGGGTKLEIK
B2: 9-E16: mouse anti-α11β1 mAb; VH SEQ ID NO: 111, VL SEQ ID NO: 112 (antibody, V domains shown)
VH: EVQLQQSGPELVKPGASVKISCKASGYTFTDYYMHWVKQKPGQGLEWIGEIYPGSGNPYYNEKFKGKATLTADKSSSSAYMQLSSLTSEDSAVYFCARTSYGRVGTGFAYWGQGTLVTVSA
VL: NFVMTQTPLSLPVSLGDQASISCRSSQSLLHSNGNTYLHWYLQKPGQSPKLLIYKVSNRFSGVPDRFSGSGSGTDFTLKINRVETEDLGIYFCSQSSHVPTFGAGTKLELK
B3: 5A7: rabbit anti-α11β1 mAb; heavy chain SEQ ID NO: 193, light chain SEQ ID NO: 194 (antibody)
heavy: METGLRWLLLVAVLKGVQCQSLEESGGGLVQPEGSLTLACTASGFSFSSYYYICWVRQAPGTGLEWIGCINTGSDDTHYASWLKGRFTFSKASSTTLTLQMTSLTAADTATYFCARSSGSSDDAYDLWGPGTLVTVSSGQPKAPSVFPLAPCCGDTPSSTVTLGCLVKGYLPEPVTVTWNSGTLTNGVRTFPSVRQSSGLYSLSSVVSVTSSSQPVTCNVAHPATNTKVDKTVAPSTCSKPMCPPPELPGGPSVFIFPPKPKDTLMISRTPEVTCVVVDVSQDDPEVQFTWYINNEQVRTARPPLREQQFNSTIRVVSTLPIAHQDWLRGKEFKCKVHNKALPAPIEKTISKARGQPLEPKVYTMGPPREELSSRSVSLTCMINGFYPSDISVEWEKNGKAEDNYKTTPTVLDSDGSYFLYSKLSVPTSEWQRGDVFTCSVMHEALHNHYTQKSISRSPGK
light: MDTRAPTQLLGLLLLWLPGARCDVVMTQTPASVSEPVGGAVTIKCQASQSIGSNLAWYQHKPGQPPKLLIYFASSLASGVSSRFKGGRSGTQFTLTISDLECADAATYYCHCTYYPLSYVTFGGGTEVVVKGDPVAPTVLIFPPAADQVATGTVTIVCVANKYFPDVTVTWEVDGTTQTTGIENSKTPQNSADCTYNLSSTLTLTSTQYNSHKEYTCKVTQGTTSVVQSFNRGDC
B4: 10-L15: mouse anti-α11β1 mAb; VH SEQ ID NO: 119, VL SEQ ID NO: 120 (antibody, V domains shown)
VH: QVQLQQSGPELVRPGASVKMSCKASGYTFTSYWMHWVKQRPGQGLEWIGMIDPSNSETWLNQKFKDKATLNVDKSSNTAYMQLSSLTSEDSAVYYCARYDGYYDYWGQGTTLTVSS
VL: NIVLTQSPASLAVSLGQRATISCRASESVDSYGNSFMHWYQQKPGQPPKLLIYLASNVESGVPARFSGSGSRTDFTLTIDPVEADDAATYYCQQNNEDPWTFGGGTKLEIK
B5: 3B1: rabbit anti-α11β1 mAb; heavy chain SEQ ID NO: 201, light chain SEQ ID NO: 202 (antibody)
heavy: METGLRWLLLVAVLKGVQCQEQLEESGGGLVKPEGSLTLTCKASGFDLSSGYDMCWVRQAPGKGLEWIACIYADYSGSTYYASWVNGRFTISSSTSLNTVDLKMTSLTAADTATYFCARGATGNGGYGYYFNLWGPGTLVTVSSGQPKAPSVFPLAPCCGDTPSSTVTLGCLVKGYLPEPVTVTWNSGTLTNGVRTFPSVRQSSGLYSLSSVVSVTSSSQPVTCNVAHPATNTKVDKTVAPSTCSKPMCPPPELPGGPSVFIFPPKPKDTLMISRTPEVTCVVVDVSQDDPEVQFTWYINNEQVRTARPPLREQQFNSTIRVVSTLPIAHQDWLRGKEFKCKVHNKALPAPIEKTISKARGQPLEPKVYTMGPPREELSSRSVSLTCMINGFYPSDISVEWEKNGKAEDNYKTTPTVLDSDGSYFLYSKLSVPTSEWQRGDVFTCSVMHEALHNHYTQKSISRSPGK
light: MDTRAPTQLLGLLLLWLPGARCADIVMTQTPASVSEPVGGTVTIKCQASQNINSGLAWYQQKPGQPPKLLIYKASTLASGVSSRFKGSGSGTEFTLTISDLECADAATYYCQTYYYSSSSSDNAFGGGTEVVVKGDPVAPTVLIFPPAADQVATGTVTIVCVANKYFPDVTVTWEVDGTTQTTGIENSKTPQNSADCTYNLSSTLTLTSTQYNSHKEYTCKVTQGTTSVVQSFNRGDC
B6: 5D7: rabbit anti-α11β1 mAb; heavy chain SEQ ID NO: 191, light chain SEQ ID NO: 192 (antibody)
heavy: METGLRWLLLVAVLKGVQCQEQLVESGGGLVQPEGSLTLTCKASGFDFSSNAMCWVRQAPGKGLEWIACIYNGDGSTYYASWVNGRFTISKTSSTTVTLQMTSLTAADTATYFCARGLSNWNRDNLWGPGTLVTVSSGQPKAPSVFPLAPCCGDTPSSTVTLGCLVKGYLPEPVTVTWNSGTLTNGVRTFPSVRQSSGLYSLSSVVSVTSSSQPVTCNVAHPATNTKVDKTVAPSTCSKPMCPPPELPGGPSVFIFPPKPKDTLMISRTPEVTCVVVDVSQDDPEVQFTWYINNEQVRTARPPLREQQFNSTIRVVSTLPIAHQDWLRGKEFKCKVHNKALPAPIEKTISKARGQPLEPKVYTMGPPREELSSRSVSLTCMINGFYPSDISVEWEKNGKAEDNYKTTPTVLDSDGSYFLYSKLSVPTSEWQRGDVFTCSVMHEALHNHYTQKSISRSPGK
light: MDTRAPTQLLGLLLLWLPGATFAQVLTQTPSSVSAAVGGTATINCQASQSLYSPKNLAWYQQTPGQPPKLLIYSASKLASGVPSRFKGSGSGTQFTLTISGVQCDDAAIYYCQGEFSCTTAACFAFGGGTEVVVKGDPVAPTVLIFPPAADQVATGTVTIVCVANKYFPDVTVTWEVDGTTQTTGIENSKTPQNSADCTYNLSSTLTLTSTQYNSHKEYTCKVTQGTTSVVQSFNRGDC

Each molecule was assayed against human α11β1 (Homo sapiens, UniProt Q9UKX5) (assay: ELISA binding to recombinant human α11β1). Details: binding Yes/No.
Sequence of human α11β1 (Q9UKX5 23-1141 limits assumed): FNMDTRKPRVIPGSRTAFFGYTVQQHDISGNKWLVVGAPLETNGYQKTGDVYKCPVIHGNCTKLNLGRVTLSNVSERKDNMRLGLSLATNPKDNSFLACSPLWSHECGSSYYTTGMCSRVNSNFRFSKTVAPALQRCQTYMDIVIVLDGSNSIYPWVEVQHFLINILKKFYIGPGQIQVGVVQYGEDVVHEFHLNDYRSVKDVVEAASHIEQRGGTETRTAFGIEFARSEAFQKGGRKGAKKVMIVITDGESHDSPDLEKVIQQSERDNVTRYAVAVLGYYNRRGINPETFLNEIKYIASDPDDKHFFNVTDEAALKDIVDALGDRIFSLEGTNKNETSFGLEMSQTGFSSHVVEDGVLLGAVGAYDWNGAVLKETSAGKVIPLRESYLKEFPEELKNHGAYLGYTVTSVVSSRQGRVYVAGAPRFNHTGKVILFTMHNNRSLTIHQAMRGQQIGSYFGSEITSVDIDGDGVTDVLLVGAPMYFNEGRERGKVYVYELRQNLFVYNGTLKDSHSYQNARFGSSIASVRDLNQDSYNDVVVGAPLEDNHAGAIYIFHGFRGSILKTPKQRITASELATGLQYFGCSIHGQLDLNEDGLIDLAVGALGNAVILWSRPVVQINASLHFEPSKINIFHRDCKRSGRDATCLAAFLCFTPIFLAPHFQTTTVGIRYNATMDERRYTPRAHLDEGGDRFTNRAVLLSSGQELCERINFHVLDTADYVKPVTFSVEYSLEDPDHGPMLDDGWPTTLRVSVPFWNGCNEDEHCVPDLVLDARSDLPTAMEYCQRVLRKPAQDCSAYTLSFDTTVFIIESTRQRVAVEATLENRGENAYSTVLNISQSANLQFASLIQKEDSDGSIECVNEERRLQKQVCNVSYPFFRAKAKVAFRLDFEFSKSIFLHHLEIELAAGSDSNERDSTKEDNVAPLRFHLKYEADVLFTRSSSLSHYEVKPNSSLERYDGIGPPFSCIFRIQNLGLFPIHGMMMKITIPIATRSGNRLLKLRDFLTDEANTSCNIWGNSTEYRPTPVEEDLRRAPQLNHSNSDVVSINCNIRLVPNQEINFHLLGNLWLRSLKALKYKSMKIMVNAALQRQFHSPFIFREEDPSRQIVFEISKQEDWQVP
Sequence of human α11β1 (P05556 21-728 partner limits assumed): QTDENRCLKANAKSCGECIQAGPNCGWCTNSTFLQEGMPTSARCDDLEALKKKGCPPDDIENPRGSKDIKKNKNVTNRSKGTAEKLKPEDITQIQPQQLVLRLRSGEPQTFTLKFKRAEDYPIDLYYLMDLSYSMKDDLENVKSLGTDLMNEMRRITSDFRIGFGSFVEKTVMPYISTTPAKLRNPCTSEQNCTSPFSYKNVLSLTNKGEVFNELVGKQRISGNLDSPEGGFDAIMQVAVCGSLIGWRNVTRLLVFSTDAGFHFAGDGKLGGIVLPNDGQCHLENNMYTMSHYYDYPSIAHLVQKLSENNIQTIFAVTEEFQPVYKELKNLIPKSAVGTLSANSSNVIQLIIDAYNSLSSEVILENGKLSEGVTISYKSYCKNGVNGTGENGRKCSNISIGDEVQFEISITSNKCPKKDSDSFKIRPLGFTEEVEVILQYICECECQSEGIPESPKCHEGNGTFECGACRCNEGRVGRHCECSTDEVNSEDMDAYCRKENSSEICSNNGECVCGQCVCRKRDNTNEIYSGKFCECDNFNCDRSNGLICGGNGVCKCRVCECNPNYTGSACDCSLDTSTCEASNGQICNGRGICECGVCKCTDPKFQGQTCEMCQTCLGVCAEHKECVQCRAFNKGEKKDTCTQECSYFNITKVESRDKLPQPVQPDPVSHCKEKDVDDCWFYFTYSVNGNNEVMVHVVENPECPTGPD
Protocol: 0.25 μg/mL of target antigen (recombinant human or mouse α11β1) was plated in a 96-well plate over night at 4° C. Plates were washed (PBS with 0.1% Tween-20), blocked (PBS with 2% BSA and 0.05% Tween-20) for 1 hour at room temperature and incubated with a range of antibody concentrations for 1 hour at room temperature. Subsequently, plates were washed and incubated with biotinylated anti-rabbit/mouse/human IgG in a 1:1000 dilution buffer and incubated for 1 hour at room temperature. After washing the plates, Streptavidin HRP was added at 1:200 in dilution buffer and incubated for 1 hour at room temperature. Ultra TMB ELISA substrate solution was added and the plates incubated for 5 minutes on a plate shaker. The reaction was stopped by adding stop solution to each well and plates were read at 450 nm.
B1 was tested, and the “Human α11β1 ELISA” value was “Yes”. In the case of B2, the “Human α11β1 ELISA” value is reported as “Yes”. With B3 the “Human α11β1 ELISA” value was “Yes”. B4 was tested, and the “Human α11β1 ELISA” value was “Yes”. B5 was tested, and the “Human α11β1 ELISA” value was “Yes”. In the case of B6, the “Human α11β1 ELISA” value is reported as “Yes”.

What follows are molecules tested on CHO-K1 cells expressing human α11 (assay: Cell adhesion inhibition (xCelligence), type I collagen). Details: CHO-K1 hu α11 cells.
Assay type: cell-based
Method in brief: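 CHO-K1 cells expressing human α11 (0.6×10^6 cells/mL) were preincubated with mAbs across a concentration range for 20 min at 37° C, then seeded on wells coated with 100 ng/mL type I collagen and blocked with 3% BSA. Impedance-based adhesion was recorded over 6 h, and maximum adhesion was compared with untreated control.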
In the case of B2, the “inhibition of cell adhesion to type I collagen” value is reported as “significantly blocked cell adhesion; also recorded: decrease cell adhesion”.

Same assay, conditions: Yes/No
With B1 the “Inhibition of CHO-K1 adhesion to collagen” value (from here on “Inhibition … to collagen”) was “No”. For B2, the “Inhibition … to collagen” value was “Yes”. In the case of B3, the “Inhibition … to collagen” value is reported as “Yes”. In the case of B4, the “Inhibition … to collagen” value is reported as “No”. In the case of B5, the “Inhibition … to collagen” value is reported as “Yes”. With B6 the “Inhibition … to collagen” value was “Yes”.

The molecules below were run on Human Pulmonary Fibroblasts (assay: Fibroblast-to-Myofibroblasts Transition (FMT), αSMA expression). Details: TGFβ-induced FMT.
Assay type: cell-based
Protocol: Human Pulmonary Fibroblasts (ScienCell) were cultured in complete Fibroblast Growth Medium (ScienCell) until 80% confluent. Cells were washed and harvested using Accutase. Cells were seeded onto tissue culture-treated 96 well plates at 20,000 cells/well in complete Fibroblast Growth Medium. After 24 hours, cells were washed and starved in serum reduced medium for an additional 24 hours. After starvation, cells were treated with TGFβ-1 (R&D Systems) with or without anti-α11 antibodies. A polyclonal rabbit anti-human α11 antibody was used as a positive control. Appropriate IgG isotype controls were also included. After 48 hours, cells were harvested, fixed, permeabilized and stained with AlexaFluor488 Labeled Anti-αSMA (α-smooth muscle actin) (Invitrogen). Cells were acquired on a FACS Verse (Benton Dickson) to determine expression levels of αSMA. Data were analyzed by gating on single cells and determining the geometric Mean Fluorescence Intensity (gMFI) in the FITC channel for each sample. gMFI for each sample was normalized to the untreated control and presented as % inhibition.
In addition to the binding abilities described above, it is important for an anti-α11β1 antibody to inhibit the fibroblast-to-myofibroblast transition (FMT). It is now appreciated that myofibroblasts are a heterogeneous cell population, existing in different activation states, with the main function of producing and contracting collagen extracellular matrix (ECM). FMT is a multi-step event that is controlled by a changing mechanical environment in tissues undergoing repair. TGFβ is one of the potent factors that potentiates this process and alpha smooth muscle actin (αSMA) is one of the main markers that becomes overexpressed when fibroblasts are undergoing the transition to becoming myofibroblasts. The presence of αSMA enhances fibroblast contraction and guides myofibroblast activation through an intracellular feedback loop. Because αSMA is the main molecular marker of myofibroblasts, the ability of the novel anti-α11β1 mAbs to inhibit αSMA expression in TGFβ-induced FMT was tested.
For B1, the “inhibition of αSMA expression / FMT” value was “only inhibited FMT”. B2 was tested, and the “inhibition of αSMA expression / FMT” value was “FMT inhibitors”.

Same assay, conditions: Yes/No
B1 was tested, and the “Inhibition of FMT” value was “Yes”. For B2, the “Inhibition of FMT” value was “Yes”. In the case of B3, the “Inhibition of FMT” value is reported as “No”. B4 was tested, and the “Inhibition of FMT” value was “No”. B5 was tested, and the “Inhibition of FMT” value was “No”. With B6 the “Inhibition of FMT” value was “No”.

Each molecule was assayed on CHO cell lines expressing α11 (assay: Collagen gel contraction assay). Details: Yes/No.
Assay type: cell-based, human
Protocol: 24-well plates were blocked with 2% BSA in PBS overnight at 37° C. The following day, the plates were washed 3 times with PBS before being used in the assay. Human CHO cell lines expressing α11 were harvested and resuspended at 1.25×10^6 in ExpiCHO Expression Medium (Gibco™ Cat #A2910002). The collagen gel solution was prepared by diluting 3 mg/mL stock collagen type I (Gibco™ Collagen I Rat Protein, Tail Cat #A1048301) to 1 mg/mL in the media containing the CHO cells. Sodium hydroxide was added to the solution to neutralize the pH and 400 μL of the collagen solution was added to each well of the 24-well plates. For the wells where the antibodies were included in the collagen gel solution, CHO cells were prepared at 2.5×10^6 and the antibodies were prepared at 2× final concentration in ExpiCHO media. The cells and antibodies were then combined 1:1 before the addition of the stock collagen type 1. The gels were allowed to polymerize for 60 minutes at 37° C. Antibodies were added to the ExpiCHO media, which was then layered on top of the polymerized gel (400 μL/well). The gels were incubated for 6 days at 37° C. before gel contraction was quantified. Images of each well were analyzed using Image J and gel contraction was determined as a percentage of the initial gel area.
Selected exemplary antibodies were tested for the ability to inhibit cell-mediated 3D gel contraction because this ability is directly linked to the functionality of the exemplary antibodies.
With B1 the “Inhibition of CHO-K1 gel contraction” value was “No”.

Same assay, conditions: vs untreated
B1 was tested, and the “inhibition of CHO-hu α11-mediated collagen gel contraction” value was “inhibited CHO-hu α11-mediated collagen gel contraction”. B2 was tested, and the “inhibition of CHO-hu α11-mediated collagen gel contraction” value was “inhibited CHO-hu α11-mediated collagen gel contraction”.
